We go through one substance from paper PMC6534667.

pKd: −log10 of the molar value.

In this series the target is scFv PL2-6 (single-chain antibody variable fragment);Histone octamer H3 (H2A, H2B, H3, H4) (Mus musculus (mouse mAb PL2-6);Drosophila) (UniProt P84051+P02283+P02299+P84040). Kind of series: ITC. The settings on record: ITC: 20 mM Tris-HCl pH 7.4, 50 mM NaCl, 1 mM EDTA, 25 C; EMSA: 10 mM Tris pH 7.4, 1 mM EDTA, 30 mM NaCl, 1% Ficoll 6000, on ice 10 min, 5% acrylamide gel in …. A general note: Mobility shift assays separate free from complexed probe on a gel.

For 147 bp Widom 601 DNA (W601), the pKd was 6.72.

Broadly, the pKd is the Kd on a negative log10 scale, so that one unit is a factor of ten.
